In US20160355586A1 (published 2016):

B1: tetrameric antibody hu3G8VH-1 / hu3G8VL-1 (antibody, IgG1, V domains shown)
VH: QVTLRESGPALVKPTQTLTLTCTFSGFSLSTSGMGVGWIRQPPGKALEWLAHIWWDDDKRYNPALKSRLTISKDTSKNQVVLTMTNMDPVDTATYYCARINPAWFAYWGQGTLVTVSS
VL: DIVMTQSPDSLAVSLGERATINCKASQSVDFDGDSFMNWYQQKPGQPPKLLIYTTSNLESGVPDRFSGSGSGTDFTLTISSLQAEDVAVYYCQQSNEDPYTFGQGTKLEIK
notes: VH on human Cgamma1 constant region (IgG1)
B2: tetrameric antibody hu3G8VH-22 / hu3G8VL-1 (antibody, IgG1, V domains shown)
VH: QVTLRESGPALVKPTQTLTLTCTFSGFSLSTSGVGVGWIRQPPGKALEWLAHIWWDDDKRYSPSLKSRLTISKDTSKNQVVLTMTNMDPVDTATYYCARINPAYFAYWGQGTLVTVS
VL: DIVMTQSPDSLAVSLGERATINCKASQSVDFDGDSFMNWYQQKPGQPPKLLIYTTSNLESGVPDRFSGSGSGTDFTLTISSLQAEDVAVYYCQQSNEDPYTFGQGTKLEIK
notes: VH on human Cgamma1 (IgG1)
B3: tetrameric antibody hu3G8VH-5 / hu3G8VL-1 (antibody, IgG1, V domains shown)
VH: QVTLRESGPALVKPTQTLTLTCTFSGFSLSTSGMGVGWIRQPPGKALEWLAHIWWDDDKRYNPALKSRLTISKDTSKNQVVLTMTNMDPVDTATYYCAQINPAWFAYWGQGTLVTVSS
VL: DIVMTQSPDSLAVSLGERATINCKASQSVDFDGDSFMNWYQQKPGQPPKLLIYTTSNLESGVPDRFSGSGSGTDFTLTISSLQAEDVAVYYCQQSNEDPYTFGQGTKLEIK
notes: VH on human Cgamma1 (IgG1)

Biological target: T1, CD16A (human, UniProt P08637 17-208, limits assumed)
T1 construct: Target of the hu3G8 VH/VL variant screen of section 5.1.2; also called FcγRIIIA
T1 sequence (P08637 17-208 limits assumed): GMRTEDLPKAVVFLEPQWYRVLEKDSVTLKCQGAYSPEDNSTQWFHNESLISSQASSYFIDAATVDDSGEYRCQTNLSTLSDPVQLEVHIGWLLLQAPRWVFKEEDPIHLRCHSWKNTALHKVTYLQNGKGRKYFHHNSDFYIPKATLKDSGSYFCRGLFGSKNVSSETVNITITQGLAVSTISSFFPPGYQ
Experiment: tetrameric IgG1 with hu3G8VL-1 light chain; binding to CD16A, method not named

Binding result, binds:
B1
B2
B3
